Starred links: 1 amine or outer side, 2 acyl side, 3 side chain; linkers in the order of their positions; H or OH if unused. Non-standard residues stand in square brackets, D forms with d. Groups on a side chain read outwards from the residue. No end group written: not given here. *: point of attachment. C16 diacid = O=C(O)CCCCCCCCCCCCCCC(=O)*; γGlu = O=C(O)[C@H](CCC(=O)[*:2])N[*:1]; AEEA = NCCOCCOCC(=O)O; Aib = CC(C)(N)C(=O)O
T1: CRF1R receptor (anti-target) (UniProt P34998 24-415, limits assumed)
T1 sequence (looked up): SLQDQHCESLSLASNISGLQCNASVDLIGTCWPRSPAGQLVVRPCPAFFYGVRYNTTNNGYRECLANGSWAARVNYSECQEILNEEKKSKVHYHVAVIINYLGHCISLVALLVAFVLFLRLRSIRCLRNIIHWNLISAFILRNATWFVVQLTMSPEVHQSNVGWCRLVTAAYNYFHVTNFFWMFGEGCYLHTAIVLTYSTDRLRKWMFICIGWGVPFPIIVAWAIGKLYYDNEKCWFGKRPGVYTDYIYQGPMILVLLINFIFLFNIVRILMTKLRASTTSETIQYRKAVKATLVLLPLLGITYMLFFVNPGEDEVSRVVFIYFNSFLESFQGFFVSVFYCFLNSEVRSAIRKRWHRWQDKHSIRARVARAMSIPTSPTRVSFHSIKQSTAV

B1: peptide of SEQ ID NO: 202 (peptide)
peptide: IVLSLD[dV]PIGLK([AEEA-AEEA-γGlu-C16 diacid])QILLKQERQKK[Aib]REQAETNKQILAQV-NH2
modifications: N-terminus assumed
SMILES: CC[C@H](C)[C@H](N)C(=O)N[C@H](C(=O)N[C@@H](CC(C)C)C(=O)N[C@@H](CO)C(=O)N[C@@H](CC(C)C)C(=O)N[C@@H](CC(=O)O)C(=O)N[C@@H](C(=O)N1CCC[C@H]1C(=O)N[C@H](C(=O)NCC(=O)N[C@@H](CC(C)C)C(=O)N[C@@H](CCCCNC(=O)COCCOCCNC(=O)COCCOCCNC(=O)CC[C@H](NC(=O)CCCCCCCCCCCCCCC(=O)O)C(=O)O)C(=O)N[C@@H](CCC(N)=O)C(=O)N[C@H](C(=O)N[C@@H](CC(C)C)C(=O)N[C@@H](CC(C)C)C(=O)N[C@@H](CCCCN)C(=O)N[C@@H](CCC(N)=O)C(=O)N[C@@H](CCC(=O)O)C(=O)N[C@@H](CCCNC(=N)N)C(=O)N[C@@H](CCC(N)=O)C(=O)N[C@@H](CCCCN)C(=O)N[C@@H](CCCCN)C(=O)NC(C)(C)C(=O)N[C@@H](CCCNC(=N)N)C(=O)N[C@@H](CCC(=O)O)C(=O)N[C@@H](CCC(N)=O)C(=O)N[C@@H](C)C(=O)N[C@@H](CCC(=O)O)C(=O)N[C@H](C(=O)N[C@@H](CC(N)=O)C(=O)N[C@@H](CCCCN)C(=O)N[C@@H](CCC(N)=O)C(=O)N[C@H](C(=O)N[C@@H](CC(C)C)C(=O)N[C@@H](C)C(=O)N[C@@H](CCC(N)=O)C(=O)N[C@H](C(N)=O)C(C)C)[C@@H](C)CC)[C@@H](C)O)[C@@H](C)CC)[C@@H](C)CC)C(C)C)C(C)C
B2: peptide of SEQ ID NO: 222 (peptide)
peptide: IVLSLD[dV]PTKLK([γGlu-C16 diacid])QKLLKQERQRKEREQAEKNVRILERV-NH2
modifications: N-terminus assumed
SMILES: CC[C@H](C)[C@H](N)C(=O)N[C@H](C(=O)N[C@@H](CC(C)C)C(=O)N[C@@H](CO)C(=O)N[C@@H](CC(C)C)C(=O)N[C@@H](CC(=O)O)C(=O)N[C@@H](C(=O)N1CCC[C@H]1C(=O)N[C@H](C(=O)N[C@@H](CCCCN)C(=O)N[C@@H](CC(C)C)C(=O)N[C@@H](CCCCNC(=O)CC[C@H](NC(=O)CCCCCCCCCCCCCCC(=O)O)C(=O)O)C(=O)N[C@@H](CCC(N)=O)C(=O)N[C@@H](CCCCN)C(=O)N[C@@H](CC(C)C)C(=O)N[C@@H](CC(C)C)C(=O)N[C@@H](CCCCN)C(=O)N[C@@H](CCC(N)=O)C(=O)N[C@@H](CCC(=O)O)C(=O)N[C@@H](CCCNC(=N)N)C(=O)N[C@@H](CCC(N)=O)C(=O)N[C@@H](CCCNC(=N)N)C(=O)N[C@@H](CCCCN)C(=O)N[C@@H](CCC(=O)O)C(=O)N[C@@H](CCCNC(=N)N)C(=O)N[C@@H](CCC(=O)O)C(=O)N[C@@H](CCC(N)=O)C(=O)N[C@@H](C)C(=O)N[C@@H](CCC(=O)O)C(=O)N[C@@H](CCCCN)C(=O)N[C@@H](CC(N)=O)C(=O)N[C@H](C(=O)N[C@@H](CCCNC(=N)N)C(=O)N[C@H](C(=O)N[C@@H](CC(C)C)C(=O)N[C@@H](CCC(=O)O)C(=O)N[C@@H](CCCNC(=N)N)C(=O)N[C@H](C(N)=O)C(C)C)[C@@H](C)CC)C(C)C)[C@@H](C)O)C(C)C)C(C)C
B3: peptide of SEQ ID NO: 201 (peptide)
peptide: IVLSLD[dV]PIKLK([AEEA-AEEA-γGlu-γGlu-C16 diacid])QILLKQERQKK[Aib]RQKAEKNKQILAQV-NH2
modifications: N-terminus assumed
SMILES: CC[C@H](C)[C@H](N)C(=O)N[C@H](C(=O)N[C@@H](CC(C)C)C(=O)N[C@@H](CO)C(=O)N[C@@H](CC(C)C)C(=O)N[C@@H](CC(=O)O)C(=O)N[C@@H](C(=O)N1CCC[C@H]1C(=O)N[C@H](C(=O)N[C@@H](CCCCN)C(=O)N[C@@H](CC(C)C)C(=O)N[C@@H](CCCCNC(=O)COCCOCCNC(=O)COCCOCCNC(=O)CC[C@H](NC(=O)CC[C@H](NC(=O)CCCCCCCCCCCCCCC(=O)O)C(=O)O)C(=O)O)C(=O)N[C@@H](CCC(N)=O)C(=O)N[C@H](C(=O)N[C@@H](CC(C)C)C(=O)N[C@@H](CC(C)C)C(=O)N[C@@H](CCCCN)C(=O)N[C@@H](CCC(N)=O)C(=O)N[C@@H](CCC(=O)O)C(=O)N[C@@H](CCCNC(=N)N)C(=O)N[C@@H](CCC(N)=O)C(=O)N[C@@H](CCCCN)C(=O)N[C@@H](CCCCN)C(=O)NC(C)(C)C(=O)N[C@@H](CCCNC(=N)N)C(=O)N[C@@H](CCC(N)=O)C(=O)N[C@@H](CCCCN)C(=O)N[C@@H](C)C(=O)N[C@@H](CCC(=O)O)C(=O)N[C@@H](CCCCN)C(=O)N[C@@H](CC(N)=O)C(=O)N[C@@H](CCCCN)C(=O)N[C@@H](CCC(N)=O)C(=O)N[C@H](C(=O)N[C@@H](CC(C)C)C(=O)N[C@@H](C)C(=O)N[C@@H](CCC(N)=O)C(=O)N[C@H](C(N)=O)C(C)C)[C@@H](C)CC)[C@@H](C)CC)[C@@H](C)CC)C(C)C)C(C)C
B4: peptide of SEQ ID NO: 221 (peptide)
peptide: IVLSLD[dV]PTKLK([γGlu-C16 diacid])QKLLKQERQRKEREQAEKNARILARV-NH2
modifications: N-terminus assumed
SMILES: CC[C@H](C)[C@H](N)C(=O)N[C@H](C(=O)N[C@@H](CC(C)C)C(=O)N[C@@H](CO)C(=O)N[C@@H](CC(C)C)C(=O)N[C@@H](CC(=O)O)C(=O)N[C@@H](C(=O)N1CCC[C@H]1C(=O)N[C@H](C(=O)N[C@@H](CCCCN)C(=O)N[C@@H](CC(C)C)C(=O)N[C@@H](CCCCNC(=O)CC[C@H](NC(=O)CCCCCCCCCCCCCCC(=O)O)C(=O)O)C(=O)N[C@@H](CCC(N)=O)C(=O)N[C@@H](CCCCN)C(=O)N[C@@H](CC(C)C)C(=O)N[C@@H](CC(C)C)C(=O)N[C@@H](CCCCN)C(=O)N[C@@H](CCC(N)=O)C(=O)N[C@@H](CCC(=O)O)C(=O)N[C@@H](CCCNC(=N)N)C(=O)N[C@@H](CCC(N)=O)C(=O)N[C@@H](CCCNC(=N)N)C(=O)N[C@@H](CCCCN)C(=O)N[C@@H](CCC(=O)O)C(=O)N[C@@H](CCCNC(=N)N)C(=O)N[C@@H](CCC(=O)O)C(=O)N[C@@H](CCC(N)=O)C(=O)N[C@@H](C)C(=O)N[C@@H](CCC(=O)O)C(=O)N[C@@H](CCCCN)C(=O)N[C@@H](CC(N)=O)C(=O)N[C@@H](C)C(=O)N[C@@H](CCCNC(=N)N)C(=O)N[C@H](C(=O)N[C@@H](CC(C)C)C(=O)N[C@@H](C)C(=O)N[C@@H](CCCNC(=N)N)C(=O)N[C@H](C(N)=O)C(C)C)[C@@H](C)CC)[C@@H](C)O)C(C)C)C(C)C
B5: peptide of SEQ ID NO: 203 (peptide)
peptide: IVLSLD[dV]PIGLK([AEEA-AEEA-γGlu-γGlu-C16 diacid])QILLKQERQKK[Aib]REQAETNKQILAQV-NH2
modifications: N-terminus assumed
SMILES: CC[C@H](C)[C@H](N)C(=O)N[C@H](C(=O)N[C@@H](CC(C)C)C(=O)N[C@@H](CO)C(=O)N[C@@H](CC(C)C)C(=O)N[C@@H](CC(=O)O)C(=O)N[C@@H](C(=O)N1CCC[C@H]1C(=O)N[C@H](C(=O)NCC(=O)N[C@@H](CC(C)C)C(=O)N[C@@H](CCCCNC(=O)COCCOCCNC(=O)COCCOCCNC(=O)CC[C@H](NC(=O)CC[C@H](NC(=O)CCCCCCCCCCCCCCC(=O)O)C(=O)O)C(=O)O)C(=O)N[C@@H](CCC(N)=O)C(=O)N[C@H](C(=O)N[C@@H](CC(C)C)C(=O)N[C@@H](CC(C)C)C(=O)N[C@@H](CCCCN)C(=O)N[C@@H](CCC(N)=O)C(=O)N[C@@H](CCC(=O)O)C(=O)N[C@@H](CCCNC(=N)N)C(=O)N[C@@H](CCC(N)=O)C(=O)N[C@@H](CCCCN)C(=O)N[C@@H](CCCCN)C(=O)NC(C)(C)C(=O)N[C@@H](CCCNC(=N)N)C(=O)N[C@@H](CCC(=O)O)C(=O)N[C@@H](CCC(N)=O)C(=O)N[C@@H](C)C(=O)N[C@@H](CCC(=O)O)C(=O)N[C@H](C(=O)N[C@@H](CC(N)=O)C(=O)N[C@@H](CCCCN)C(=O)N[C@@H](CCC(N)=O)C(=O)N[C@H](C(=O)N[C@@H](CC(C)C)C(=O)N[C@@H](C)C(=O)N[C@@H](CCC(N)=O)C(=O)N[C@H](C(N)=O)C(C)C)[C@@H](C)CC)[C@@H](C)O)[C@@H](C)CC)[C@@H](C)CC)C(C)C)C(C)C

Target: T1, CRF1R receptor (anti-target)
Assay: cell-based or functional assay

| EC50 [nM] 0% HSA (cAMP, HTRF) [nM] | Emax (%) (100% = Sauvagine at 100 nM) | Binder |
| --- | --- | --- |
| > 100 | 5.4 | B1 |
| > 100 | 6.2 | B2 |
| > 100 | -2.8 | B3 |
| > 100 | 3.2 | B4 |
| > 100 | 4.7 | B5 |

Target: human corticotropin-releasing factor 2α (CRF2α receptor) (human), Q13324
Sequence (Q13324 20-411): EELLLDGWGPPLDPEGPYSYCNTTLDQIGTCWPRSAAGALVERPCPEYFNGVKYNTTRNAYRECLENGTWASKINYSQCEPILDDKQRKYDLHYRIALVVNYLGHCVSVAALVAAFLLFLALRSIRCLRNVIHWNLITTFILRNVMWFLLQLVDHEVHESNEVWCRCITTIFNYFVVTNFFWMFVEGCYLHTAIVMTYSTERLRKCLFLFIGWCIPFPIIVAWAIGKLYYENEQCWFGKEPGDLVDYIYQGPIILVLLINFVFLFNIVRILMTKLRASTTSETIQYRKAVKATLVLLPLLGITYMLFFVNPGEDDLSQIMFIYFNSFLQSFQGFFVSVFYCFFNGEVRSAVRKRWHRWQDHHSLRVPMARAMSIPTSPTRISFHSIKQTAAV
Assay: cell-based or functional assay

| EC50 [nM], 0% HSA (cAMP, HTRF) [nM] | Binder |
| --- | --- |
| 0.87 | B1 |
| 7.38 | B2 |
| 4.66 | B3 |
| 2.71 | B4 |
| 4.7 | B5 |

Reference: US12679878B2, “CRF2 receptor agonists and their use in therapy” (SANOFI, priority 2020, dated 2026)
